From patent US12466859B2, “Desmoglein 2 (DSG2) binding proteins and uses therefor” (UNIVERSITY OF WASHINGTON THROUGH ITS CENTER FOR …, priority 2013, dated 2025)

T1: soluble recombinant DSG2 (Homo sapiens, UniProt Q14126)
T1 construct: Western blot using soluble recombinant DSG2 as a probe; purchased Leinco Technologies, Inc. (St. Louis, MO)
T1 sequence (Q14126 50-609 limits assumed): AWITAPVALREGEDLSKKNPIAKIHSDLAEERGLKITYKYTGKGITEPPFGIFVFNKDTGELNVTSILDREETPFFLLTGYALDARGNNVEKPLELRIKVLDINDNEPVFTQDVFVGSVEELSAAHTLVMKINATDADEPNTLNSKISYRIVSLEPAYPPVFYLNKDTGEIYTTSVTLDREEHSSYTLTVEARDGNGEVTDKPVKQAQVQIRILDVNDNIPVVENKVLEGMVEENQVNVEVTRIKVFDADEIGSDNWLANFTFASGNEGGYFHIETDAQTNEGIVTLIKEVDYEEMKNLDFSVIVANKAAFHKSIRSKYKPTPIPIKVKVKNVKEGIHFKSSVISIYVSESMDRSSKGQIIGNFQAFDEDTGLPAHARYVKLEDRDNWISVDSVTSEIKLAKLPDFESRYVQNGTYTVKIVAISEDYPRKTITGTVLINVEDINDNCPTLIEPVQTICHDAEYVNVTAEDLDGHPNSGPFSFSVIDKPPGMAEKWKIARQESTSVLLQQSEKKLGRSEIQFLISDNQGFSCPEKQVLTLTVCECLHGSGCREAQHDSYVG

T2: DSG2 (Homo sapiens, UniProt Q14126)
T2 construct: Western blot using soluble recombinant DSG2 as a probe; purchased Leinco Technologies, Inc. (St. Louis, MO)
T2 sequence (Q14126 50-609 limits assumed): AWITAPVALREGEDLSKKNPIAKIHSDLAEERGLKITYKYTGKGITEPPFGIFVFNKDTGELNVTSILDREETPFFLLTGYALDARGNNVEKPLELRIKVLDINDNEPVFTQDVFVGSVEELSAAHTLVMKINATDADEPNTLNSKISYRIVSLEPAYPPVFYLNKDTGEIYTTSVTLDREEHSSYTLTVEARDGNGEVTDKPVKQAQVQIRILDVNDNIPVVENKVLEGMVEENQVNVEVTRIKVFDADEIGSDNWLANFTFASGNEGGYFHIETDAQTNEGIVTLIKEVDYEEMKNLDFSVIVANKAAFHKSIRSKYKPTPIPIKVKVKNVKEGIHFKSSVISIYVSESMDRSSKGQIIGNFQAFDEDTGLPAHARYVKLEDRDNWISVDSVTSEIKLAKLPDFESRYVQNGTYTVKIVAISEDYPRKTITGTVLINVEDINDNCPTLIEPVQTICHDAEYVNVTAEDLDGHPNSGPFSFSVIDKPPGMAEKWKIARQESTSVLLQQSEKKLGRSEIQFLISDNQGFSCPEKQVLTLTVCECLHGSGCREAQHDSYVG


Legend:
soluble recombinant DSG2 = target: T1, soluble recombinant DSG2; assay: Western blot of dimeric Ad3 fiber knob mutants with soluble recombinant DSG2 as probe; format: binding; conditions: dimerized knob mutants compared to JO-1
Description: FIG. 1A-1F. Residues found to be critically involved in binding to DSG2. FIG. 1A) Shown are the amino acid sequences of the Ad3 and Ad14p1 fiber knob. Beta sheets present in the Ad3 knob (PDB accession number 1H7Z_A) and Ad14 knob (PDB: 3F0Y_A) are indicated by lines. Black arrows indicate residues within the Ad3 fiber knob which, when mutated individually, ablate or reduce binding to DSG2. […] FIG. 1B) Schematic structure of dimeric Ad3 fiber knob mutants. The fiber knob domain and one shaft motif was fused through a flexible linker to a homodimerizing K-coil domain (41). The proteins are self-dimerizing and can be purified by His-Ni-NTA affinity chromatography. FIG. 1C-FIG. 1F) Analysis of binding of dimeric Ad3 fiber knob mutants to soluble DSG2. FIG. 1C and FIG. 1D) Coomassie staining. 10 μg of purified Ad3 fiber knob (unboiled) were loaded per lane. Trimeric forms of the fiber knobs are indicated by an arrow. The gel contained SDS and the loading buffer containing DTT, which caused the disassembly of dimers of trimeric fiber knobs as previously reported (41). FIG. 1E and FIG. 1F): Western blot using soluble recombinant DSG2 as a probe, followed by anti-DSG2-mAb and anti-mouse IgG-HRP. For comparison, JO-1 (0.5 μg/lane) is shown. The Western blots were scanned and signals were quantified.
Western Blot: Mini-PROTEAN precast gels (BIO-RAD, Hercules, CA) with 4-15% gradient polyacrylamide were used. A total of 1 μg protein mixed with 2× loading buffer (10 mM Tris-HCl, pH6.8, 200 mM DTT, 4% SDS, 20% glycerol, 0.2% bromophenol blue) was loaded per lane. Samples were either boiled (B) for 5 min or loaded unboiled (UB). The following running buffer was used: 25 mM Tris, pH8.3, 0.192 M glycine, 0.1% SDS. After electrophoresis, proteins were transferred to nitrocellulose and incubated with recombinant human DSG2 protein and anti-DSG2 antibodies as described previously (42). The Western blots were scanned and quantified using the ImageJ 1.32 software (National Institutes of Health, Bethesda, MD). JO-1 band intensity was set as 100%. […]

Ad3-GFP virus = assay: Competition of Ad3-GFP virus infection on HeLa cells; format: cell-based, adenovirus serotype 3
Experimental: (§1) FIG. 3A-3D. Competition of Ad3 virus by dimerized Ad3 knob mutants. FIG. 3A) Relative attachment of ^3H-labeled Ad3 virus in the presence of dimeric fiber knob mutants. 1.8×10^5 HeLa cells were incubated with Ad3 knob mutants at a concentration of 2.5 and 100 μg/ml on ice for 1 hour. Then 400 pfu/cell of ^3H-Ad3 virus was added on ice for another hour. Unbound virus particles were washed away. Attachment of virus particles incubated with PBS was taken as 100%. N=3. FIG. 3B1-3B2) Competition of Ad3-GFP virus infection on HeLa cells. 1.5×10^5 HeLa cells were seeded into 24 well plates. Cells were incubated with the Ad3 knob mutants at increasing concentrations for one hour at room temperature. 100 pfu/cell of Ad3-GFP virus were then added and GFP expression was analyzed 18 hours later by flow cytometry. FIG. 3B1) percentage of GFP positive cells. FIG. 3B2) mean fluorescence intensity. N=3. The standard deviation was less than 10%. FIG. 3C) Relative attachment of ^3H-labeled Ad3 virus in the presence of dimeric fiber knob mutants with multiple mutations. The study was performed as described in FIG. 3B) The standard deviation was less than 10%. FIG. 3D) Competition of Ad3-GFP virus infection on HeLa cells. The study was performed as described in FIG. 3C) The standard deviation was less than 10%.
FIG. 9A1-9C. Analysis of dimeric Ad3 fiber knob mutants with increased affinity to DSG2. FIG. 9A1-9A2) Competition of Ad3-GFP virus infection on HeLa cells with dimeric affinity-enhanced mutant Y250F and JO-1 (dimeric wt Ad3 fiber knob). The experimental setting is as described for FIG. 3C. FIG. 9A1) percentage of GFP positive cells. FIG. 9A2) mean fluorescence intensity. N=3. The standard deviation was less than 10%. […] 100 pfu/cell of Ad3GFP virus were then added and GFP expression was analyzed 18 hours later. […]
Functional validation. […] Transduction was measured based on GFP expression (FIG. 3B). […] Dimeric Ad3 knob mutants with combined mutations were also analyzed for their ability to compete with Ad3 virus for attachment (FIG. 3C) and infection (FIG. 3D).

3H-labeled Ad3 virus = assay: Competition of 3H-labeled Ad3 virus attachment to HeLa cells; format: cell-based, adenovirus serotype 3
Experimental: as §1, with “The study was performed as described in FIG. 3B) The standard deviation was less than 10%. FIG. 3D) Competition of Ad3-GFP virus infection on HeLa cells. The study was performed as described in FIG. 3C) The standard deviation was less than 10%.” left out
Competition assays. […] After the last wash, the supernatant was removed and the cell-associated radioactivity was determined by a scintillation counter. The number of VP bound per cell was calculated by using the virion specific radioactivity and the number of cells.

DSG2 = target: T2, DSG2; assay: Surface plasmon resonance of Ad3 fiber knobs on immobilized DSG2; format: binding; conditions: knobs without dimerization domain
Experimental: FIG. 7A-7B. SPR analysis of non-dimerized Ad3 fiber knob interactions with DSG2. FIG. 7A) DSG2 was immobilized on sensorchips, and background was automatically subtracted from the control flow cell. The Ad3 fiber knobs (w/o dimerization domain: “noDD”) were injected for 3 minutes at 2.5 μg/ml followed by a 2.5 minutes dissociation period. FIG. 7B) Summary of SPR data. […] The extracted data are resumed in the table. Wt=Ad3 fiber knob without mutations FIG. 8A-8G. Electron microscopy and 3D structure of Ad3 fiber knob mutant JO-2.
Surface Plasmon Resonance: Acquisitions were done on a BIAcore 3000 instrument. HBS-N (GE-Healthcare, Pittsburgh, PA) supplemented with 2 mM CaCl2) was used as running buffer in all experiments at a flow rate of 5 [l/min. Immobilization on CM4 sensorchip (BIAcore) was performed using DSG2 at 10 μg/ml diluted in 10 mM Acetate buffer pH 4.5 injected for 10 minutes on ethyl(dimethylaminopropyl) carbodiimide (EDC)/N-Hydroxysuccinimide (NHS) activated flow-cell. A control flow-cell was activated by (EDC/NHS) and inactivated by ethanolamine. Different concentrations of Ad3 fiber knob proteins were injected for 3 minutes association followed by 2.5 minutes dissociation time, and the signal was automatically subtracted from the background of the ethanolamine deactivated EDC-NHS flow cell. Kinetic and affinity constants were calculated using the BIAeval software.

[1] = even at concentrations of 200 ug/ml

Molecule | DSG2 binding in Western blot, in words (soluble recombinant DSG2) | Inhibition of Ad3-GFP infection of HeLa cells, in words (Ad3-GFP virus; pre-incubation with knob, GFP expression) | Block of Ad3 infection (Ad3-GFP virus; [1]) | Inhibition of attachment in the presence of dimeric knob (JO-1 = 100%) (3H-labeled Ad3 virus; Ad3 virus attachment to HeLa cells, N=3, averages) [%] | Block of Ad3 binding (attachment) (3H-labeled Ad3 virus; [1]) | association rate to DSG2, in words (DSG2) | dissociation rate, in words (DSG2)
F265L (protein) MKVSALKEKVSALKEKVSALKEKVSALKEKVSALKEGSGGGSGGGSGGGSNSIALKNNTLWTGPKPEANCIIEYGKQNPDSKLTLILVKNGGIVNGYVTLMGASDYVNTLFKNKNVSINVELYFDATGHILPDSSSLKTDLELKYKQTADFSARGFMPSTTAYPFVLPNAGTHNENYIFGQCYYKASDGALLPLEVTVMLNKRLPDSRTSYVMTFLWSLNAGLAPETTQATLITSPFTFSYIREDD | almost completely ablated | least reduced | – | – | – | – | –
N186D, D261N, L296R: dimeric Ad3 fiber knob with a combination of all three N186D, D261N, and L296R (protein) MKVSALKEKVSALKEKVSALKEKVSALKEKVSALKEGSGGGSGGGSGGGSNSIALKNNTLWTGPKPEANCIIEYGKQNPDSKLTLILVKNGGIVNGYVTLMGASDYVNTLFKDKNVSINVELYFDATGHILPDSSSLKTDLELKYKQTADFSARGFMPSTTAYPFVLPNAGTHNENYIFGQCYYKASNGALFPLEVTVMLNKRLPDSRTSYVMTFLWSLNAGRAPETTQATLITSPFTFSYIREDD | highest level of ablation | – | did not block | 18.5 | did not block | – | –
N293S/noDD (protein, left off: small tags and cut ends) NKLCSKLGNGLTFDSSNSIALKNNTLWTGPKPEANCIIEYGKQNPDSKLTLILVKNGGIVNGYVTLMGASDYVNTLFKNKNVSINVELYFDATGHILPDSSSLKTDLELKYKQTADFSARGFMPSTTAYPFVLPNAGTHNENYIFGQCYYKASDGALFPLEVTVMLNKRLPDSRTSYVMTFLWSLSAGLAPETTQATLITSPFTFSYIREDD | – | – | – | – | – | lowest when compared to other mutants | slower dissociation rate
